Laboratory results taken from patent US20190309060A1 (PHILOGEN S P A, published 2019).
Residue numbers refer to the chain shown, from its start.

What was measured:
[1] = target: T1, human galectin-2, natively expressed (LS174T cells; human colon biopsy sections) (human, UniProt P05162 1-132); assay: immunofluorescence of frozen healthy colon sections, biotinylated IgG, streptavidin-alexa 488
T1 construct: Cytoplasmic protein in fixed, methanol-permeabilized LS174T cells, and native protein in frozen colon sections; also called natively expressed galectin-2 antigen
T1 sequence: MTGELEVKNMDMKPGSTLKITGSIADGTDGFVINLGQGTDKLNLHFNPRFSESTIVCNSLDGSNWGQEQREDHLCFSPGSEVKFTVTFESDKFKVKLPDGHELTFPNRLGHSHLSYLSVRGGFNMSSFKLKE
Protocol: (§1) Detection of the primary antibody was performed with streptavidin-alexa 488 (Invitrogen). Blood vessels were detected using a mouse anti-human CD31 antibody (eBioscience) followed by detection with an anti-mouse alexa 594 antibody (Invitrogen). Counterstaining for cell nuclei was performed with DAPI (eBioscience).
(§2) (i) Freshly frozen colon biopsy samples from a healthy donor were stained according to already published methods (Pfaffen et al., Eur J Nucl Med Mol Imagin (2010) 37: 1559-65). Briefly, purified biotinylated antibodies in IgG format were added at the final concentration of 2 μg/ml onto the sections. Detection of the primary antibody was performed with streptavidin-alexa 488 (Invitrogen). Blood vessels were detected using a mouse anti-human CD31 antibody (eBioscience) followed by detection with an anti-mouse alexa 594 antibody (Invitrogen). Counterstaining for cell nuclei was performed with DAPI (eBioscience).
as §2, with “(ii)” for “(i)”, “Detection of the primary antibody was performed with streptavidin-alexa 488 (Invitrogen).” left out, “Counterstaining for cell nuclei was performed with DAPI (eBioscience).” left out

[2] = target: T2, human Agr2, native, in human colon biopsy sections (human, UniProt O95994 21-175); assay: as above
T2 construct: Native protein in healthy-donor colon and ulcerative colitis sections; also called human Agr2 antigen
T2 sequence: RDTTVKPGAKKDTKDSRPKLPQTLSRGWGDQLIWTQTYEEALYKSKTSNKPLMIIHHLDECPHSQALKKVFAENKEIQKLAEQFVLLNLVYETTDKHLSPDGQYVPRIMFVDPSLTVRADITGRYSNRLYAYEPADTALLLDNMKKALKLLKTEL
Protocol: as §1, §2
as §2, with “(ii)” for “(i)”, “Detection of the primary antibody was performed with streptavidin-alexa 488 (Invitrogen).” left out, “Counterstaining for cell nuclei was performed with DAPI (eBioscience).” left out

[3] = target: T3, human cadherin-17, native, in human ulcerative colitis biopsy sections (human, UniProt Q12864 23-832); assay: immunofluorescence of frozen human ulcerative colitis sections, human IgG1 format, rabbit anti-human IgG and goat anti-rabbit Alexa 488
T3 construct: Native protein in tissue; also called cognate antigen (of AV17)
T3 sequence: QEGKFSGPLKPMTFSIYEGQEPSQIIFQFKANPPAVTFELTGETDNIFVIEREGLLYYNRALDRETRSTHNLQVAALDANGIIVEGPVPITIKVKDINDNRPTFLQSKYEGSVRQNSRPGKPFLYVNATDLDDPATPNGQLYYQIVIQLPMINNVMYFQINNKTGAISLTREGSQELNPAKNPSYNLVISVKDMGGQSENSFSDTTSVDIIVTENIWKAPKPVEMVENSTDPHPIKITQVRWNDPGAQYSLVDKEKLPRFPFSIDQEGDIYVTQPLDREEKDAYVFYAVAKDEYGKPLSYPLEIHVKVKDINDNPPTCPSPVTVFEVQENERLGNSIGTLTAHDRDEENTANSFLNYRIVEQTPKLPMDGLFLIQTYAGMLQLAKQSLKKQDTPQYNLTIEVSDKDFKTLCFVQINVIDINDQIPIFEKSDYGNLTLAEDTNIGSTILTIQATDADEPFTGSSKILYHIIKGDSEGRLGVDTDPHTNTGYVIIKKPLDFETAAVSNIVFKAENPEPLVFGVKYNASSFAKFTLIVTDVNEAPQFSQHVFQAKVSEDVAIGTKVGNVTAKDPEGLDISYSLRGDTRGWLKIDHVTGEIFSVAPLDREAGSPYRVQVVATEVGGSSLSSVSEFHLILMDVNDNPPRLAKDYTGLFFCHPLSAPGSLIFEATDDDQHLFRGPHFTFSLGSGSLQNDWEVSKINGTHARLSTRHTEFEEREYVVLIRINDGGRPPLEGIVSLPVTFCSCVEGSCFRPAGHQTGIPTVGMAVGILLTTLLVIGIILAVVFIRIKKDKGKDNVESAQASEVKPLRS
Protocol: Purified antibodies in human IgG1 format were added at the final concentration of 2 μg/ml to the sections. […] A positive control was performed by counterstaining for cell nuclei was performed with DAPI (eBioscience). Sections were mounted with fluorescent mounting medium (DAKO) followed by analysis using an Axioskop2 microscope with a 10× objective (Carl Zeiss AG, Jena, Germany). A stronger intensity signal in the colonic crypts region can be detected in the sections stained with CPR02, AV17 and FF06 when compared to the signal observed with an irrelevant antibody (Negative Control).
Freshly frozen human biopsy samples of Ulcerative Colitis were stained as described in the following lines. In brief, purified antibodies in human IgG1 format were added at the final concentration of 2 μg/ml to the sections. […] Further positive control was performed by counterstaining for cell nuclei was performed with DAPI (eBioscience). Sections were mounted with fluorescent mounting medium (DAKO) followed by analysis using an Axioskop2 microscope with a 10× objective (Carl Zeiss AG, Jena, Germany).

B1: FF06 in IgG format (antibody, V domains shown)
VH: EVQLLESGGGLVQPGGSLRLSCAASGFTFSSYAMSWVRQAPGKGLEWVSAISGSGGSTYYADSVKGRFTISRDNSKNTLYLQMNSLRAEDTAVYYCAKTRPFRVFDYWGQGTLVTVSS
VL: SSELTQDPAVSVALGQTVRITCQGDSLRSYYASWYQQKPGQAPVLVIYGKNNRPSGIPDRFSGSSSGNTASLTITGAQAEDEADYYCNSSRSRRPAVVFGGGTKLTVLG
notes: also called anti-Galectin-2 (FF06)
B1: binds [1].

B2: CPR02 in IgG format (antibody, V domains shown)
VH: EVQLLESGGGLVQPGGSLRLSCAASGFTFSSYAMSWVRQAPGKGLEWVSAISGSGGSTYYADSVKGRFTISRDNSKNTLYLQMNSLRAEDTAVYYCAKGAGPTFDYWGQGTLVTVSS
VL: B1 VL with R91P, S92P, R93T, P95A, A96V
notes: also called anti-Agr2 (CPR02)
B2: binds [2].

B3: AV17 in human IgG1 format (antibody, V domains shown)
VH: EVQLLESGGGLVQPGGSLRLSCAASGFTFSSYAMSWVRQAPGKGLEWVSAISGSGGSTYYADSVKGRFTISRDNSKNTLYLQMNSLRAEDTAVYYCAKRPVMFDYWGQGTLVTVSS
VL: B1 VL with R91L, S92P, R93S, R94P, P95Q, A96V
notes: Human IgG1 format; also called anti-cadherin 17 (AV17)
B3: binds [3].
